Patent US7579150B1, “Mobile RNA acts as a signal to regulate plant growth and development” (Iowa State University Research Foundation, Inc., priority 2004, dated 2009)
Entries after “also recorded” stand apart in the source; their conditions may differ.

Experiments:
[1] = system: POTH1 overexpression lines; assay: Exogenous GA3 application to POTH1 overexpression lines; assay type: in vivo, Solanum tuberosum; conditions: shoot apex sprayed with 10 μM GA3 in 0.002% (v/v) ethanol
Text: Many of the traits of the phenotypes observed in POTH1 overexpression lines were similar to GA-deficient mutants. These similarities included decreased plant height, decreased internode length, and darker green coloration of the leaves (van den Berg et al., “Morphology and [^14C]Gibberellin A12 Metabolism in Wild-Type and Dwarf Solanum Tuberosum ssp. Andigena Grown Under Long and Short Photoperiods,” J. Plant Physiol. 146:467-473 (1995), which is hereby incorporated by reference in its entirety). Because of this, exogenous GA3 was applied to determine whether the overexpression lines were responsive to GA treatment. The shoot apex of overexpression lines was sprayed to runoff with 10 μM GA3 in 0.002% (v/v) ethanol or with 0.002% (v/v) ethanol alone. […] Palisade and spongy parenchyma organization is partially rescued in leaves from line 15 treated with GA3 (FIG. 5G). The GA3-treated leaf (FIG. 5J) of the severe mutant, line 15, is more similar in morphology to the wild-type leaf (FIG. 5K). Leaflets are more ovate in form rather than the typical mouse-ear shape. Wild-type leaves have a prominent mid-vein (FIG. 5L), whereas the mid-vein (FIG. 5M, arrow) is more prominent in the mutant GA3-treated leaf than in the mutant untreated leaf (FIG. 5N). […]

[2] = target: POTH1 (full-length) in pBridge, fused to the GAL4 DNA-binding domain (Solanum tuberosum); assay: yeast two-hybrid, quantitative beta-galactosidase assay; reference: full-length construct StBEL-05 (pAD-05)
[3] = system: ga20ox1 promoter; assay: Transcription (transfection) assay, pGAOP::GUS reporter in tobacco protoplasts; assay type: cell-based, potato; conditions: for decrease of relative GUS-LUC activity of the pGAOP::GUS reporter: co-transfected effector, tobacco protoplasts; for repression of ga20ox1 promoter with point mutation in the binding site: mutated reporter construct
Text: The cauliflowermosaic virus (CaMV) 35S promoter in pBI221 (Clontech, Palo Alto, Calif.) was replaced by an enhancer fragment (−832 to −50) of the 35S promoter plus 980 bp of the ga20ox1 promoter to generate the pGAOP::β-glucuronidase (GUS) reporter construct. With this construct, the reporter GUS transcription level is augmented but its transcription may still be affected by the ga20ox1 promoter. A CaMV 35S promoter-driven luciferase (LUC) construct 35S-LUC (obtained from Dr. Takahashi, Dept. of Biological Sciences, Graduate School of Science, Univ. of Tokyo, Japan) was used as an internal control. Effector constructs were also generated by using pBI221 vector as a backbone, with the GUS gene replaced by the full-length cDNAs of either StBEL-05 or POTH1, downstream of the CaMV 35S promoter. Truncated cDNAs that encode the N-terminal protein-binding domains of StBEL-05 or POTH1 were used to generate the dominant negative constructs, StBEL5ΔC295 and POTH1ΔC122, respectively. The reporter construct with the mutated promoter was generated by site-directed PCR mutagenesis with oligos 5′-CTATTTGACTTC*ACACGGTTATTT-3′ (SEQ ID NO:23) and 5′-AAATAACCGTGTG*AAGTCAAATAG-3′ (SEQ ID NO:24).
Fully expanded leaves from three- to four-week-old tobacco plants were excised and placed in K3 basal media (Kao et al., “Nutritional Requirements for Growth of Vicia hajastana Cells and Protoplasts at a Very Low Density in Liquid Media,” Planta 126:105-110 (1975), which is hereby incorporated by reference in its entirety) supplemented with 0.4 M sucrose, 0.25% (w-v) cellulases (Karlan Research Products, Santa Rosa, CA), and 0.05% (w-v) macerases (Calbiochem, La Jolla, Calif.) and incubated for overnight at 28° C. After incubation, the liberated protoplasts were filtered through sterile cheesecloth into a Babcock bottle, and centrifuged for 10 minutes at 1000 rpm. Protoplasts were collected from the bottleneck area and washed once in K3 media with 0.4 M sucrose and resuspended in K3 media containing 0.4 M glucose to a final concentration of 4×10^6 protoplasts per milliliter. […]
Luciferase assays were performed by injecting 100-μL luciferase substrate (Promega, Madison, Wis.) into 20 μL of extract and measuring the emitted photons for 15 seconds in a TD-20 luminometer (Turner Designs, Sunnyvale, Calif.). […] A fluorescence multiwell plate reader, Fluoroskan II (MTX labs, Vienna, Va.), was used to measure GUS activity at 365 nm (excitation) and 455 nm (emission). Each sample was measured three times for both LUC and GUS activity. Relative GUS-LUC activity was calculated by dividing the ratio of GUS activity to LUC activity from different effectors with the ratio from reporter plasmid alone. Relative activities calculated from three transfection replications were presented as a mean±SE.

[4] = system: CaMV 35S promoter; assay: Transcription (transfection) assay, 35S GUS construct in tobacco protoplasts; assay type: cell-based, cauliflower mosaic virus
[5] = system: ga20ox1 promoter regions P1, P2, P3 and first intron; assay: Gel retardation (gel mobility shift) assay; assay type: binding, potato; conditions: recombinant protein from E. coli
Text: The first intron with partial flanking exon sequence (450 bp) of potato ga20ox1 and its promoter (981 bp, provided by Dr. Salomé Prat, CSIC Cantoblanco Campus, Univ. of Madrid, Spain) were used for gel mobility shift assays. Polymerase chain reaction (PCR) was used to amplify three regions of the promoter: −981 to 636 (P1), −660 to 307 (P2), and −331 to 0 (P3). About a 25-bp overlap was maintained between P1 and P2 or P2 and P3 in the chance that the protein-binding site would span the overlapped region. The first intron of this gene was amplified from potato genomic DNA by using PCR and the oligos 5′-[…]-3′ (SEQ ID NO:21) and 5′-[…]-3′ (SEQ ID NO:22) as primers. These primers were designed based on the site of the first intron of the tobacco GA20 oxidase gene Ntc12. The four fragments were purified on a 1.4% agarose gel and labeled with α^32P-dATP using Klenow fragment. […]
In the competition assays, unlabeled double-stranded DNA fragments (10×, 25×, 50×, 100×) were incubated with the recombinant protein before the addition of the radioactive probe. The dissociation rates were determined by adding 500-fold more cold DNA fragments to the DNA-binding reactions that were being incubated on ice, and loaded onto the running gel every 10 minutes. […]

[6] = system: POTH1; assay: Yeast two-hybrid interaction with POTH1 (nutritional selection, beta-galactosidase); assay type: cell-based, potato; conditions: yeast strain AH109, nutritional markers and lacZ
Text: The Matchmaker two-hybrid system (Clontech, CA) was used for the yeast two-hybrid screen. Yeast transformation and plasmid rescue into DH5-a E. coli cells were according to the manufacturer's instructions. Full-length POTH1 was cloned into the pBridge (Clontech, CA) vector and used as bait to screen the potato (S. tuberosum ‘Desireé’) stolon cDNA library in pAD-GAL4-2.1 (Stratagene, Calif.). Positive interactions were confirmed by cotransforming yeast strain AH109 with each purified pAD plasmid and pBridge: POTH1 and plating on -leucine/-tryptophan (transformation control) and -leucine/-tryptophan/-histidine/-adenine (selection) nutrient medium. Induction of the AH109 reporter gene, lacZ, was measured with a yeast β-galactosidase assay kit (Pierce Chemicals). β-galactosidase activity (FIG. 9B) was determined from a known density of yeast cells and calculated as 1000×OD420/time of color reaction (minutes)×volume of yeast culture (ml)×OD600.
The StBEL-05 deletion constructs were amplified by PCR, then cloned into the vector, pGAD, in-frame with the GAL4 activation domain. POTH1 deletion constructs were amplified by PCR, and cloned into pBridge (Clontech) in-frame with the GAL4 binding domain. Sequencing of selected cDNAs and constructs was performed at the Iowa State University DNA Facility. For deletion analysis, modified constructs of POTH1 were cloned into the pBridge vector for fusion with the DNA-binding domain of GAL4 (FIG. 10A). For StBEL-05, constructs were cloned into the pGAD vector for fusion with the activating domain of GAL4 (FIG. 10B). Deletion constructs were made from both the amino and carboxy termini. These mutants were then tested for interaction in the yeast two-hybrid system by cotransforming into yeast strain AH109 with the corresponding full-length partner (StBEL-05 in pGAL4 or POTH1 in pBridge). All constructs were sequenced to verify that they were in-frame. Positive interactions were verified for lacZ induction by using a β-galactosidase assay (Pierce Chemical Company). For POTH1, seven deletion constructs were tested (FIG. 10A). For the BEL TFs, a fusion construct of StBEL-05 (653 aa of StBEL-05 sequence) and nine deletion constructs were tested (FIG. 10B).

Molecule | effect on leaf morphology of POTH1 overexpression lines [1] | effect on plant height / dwarf phenotype of POTH1 overexpression lines [1] | decrease in the induction of the lacZ marker (beta-galactosidase activity) relative to the full-length construct, StBEL-05 [2] | decrease of relative GUS-LUC activity of the pGAOP::GUS reporter [3] | repression of ga20ox1 promoter with point mutation in the binding site [3] | effect on activity of the CaMV 35S promoter [4] | binding to ga20ox1 regulatory regions [5] | interaction with POTH1 [6]
C=C1C[C@]23C[C@@]1(O)CC[C@H]2[C@@]12C=C[C@H](O)[C@@](C)(C(=O)O1)[C@H]2[C@@H]3C(=O)O [GA3] | partially rescued the leaf morphology of both severe and intermediate phenotypes; also recorded: partial reversal of the leaf phenotype | caused plants with a severe phenotype to increase in height; also recorded: completely rescued the dwarf phenotype |  |  |  |  |  | 
pAD5-1, StBEL-05 deletion construct in pGAD (GAL4 activation domain fusion) |  |  | 55% |  |  |  |  | 
POTH1: KNOX transcription factor of potato, SEQ ID NO:17, 345 aa (protein, listed as Solanum tuberosum) MDDEMYGFHSTRDDYADKALMSPENLMMQTEYNNFHNYTNSSILTSNPMMFGSDDIQLSSEQTNSFSTMTLQNNDNIYQIRSGNCGGGSGSGGSSKDHNDNNNNNEDYDEDGSNVIKAKIVSHPYYPKLLNAYIDCQKVGAPAGIVNLLEEIRQQTDFRKPNATSICIGADPELDEFMETYCDILLKYKSDLSRPFDEATTFLNKIEMQLGNLCKDDGGVSSDEELSCGEADASMRSEDNELKDRLLRKFGSHLSSLKLEFSKKKKKGKLPKEARQMLLAWWDDHFRWPYPTEADKNSLAESTGLDPKQINNWFINQRKRHWKPSENMQLAVMDNLSSQFFSSDD |  |  |  | more than half | no detectable repression of promoter activity | Neither StBEL-05 nor POTH1 showed any effect | only formed a complex with P1 | 
StBEL-05: BEL transcription factor from Solanum tuberosum, SEQ ID NO:2, 688 aa (protein, listed as Solanum tuberosum) MYYQGTSDNTNIQADHQQRHNHGNSNNNNIQTLYLMNPNNYMQGYTTSDTQQQQQLLFLNSSPAASNALCHANIQHAPLQQQHFVGVPLPAVSLHDQINHHGLLQRMWNNQDQSQQVIVPSSTGVSATSCGGITTDLASQLAFQRPIPTPQHRQQQQQQGGLSLSLSPQLQQQISFNNNISSSSPRTNNVTIRGTLDGSSSNMVLGSKYLKAAQELLDEVVNIVGKSIKGDDQKKDNSMNKESMPLASDVNTNSSGGGESSSRQKNEVAVELTTAQRQELQMKKAKLLAMLEEVEQRYRQYHHQMQIIVLSFEQVAGIGSAKSYTQLALHAISKQFRCLKDAIAEQVKATSKSLGEEEGLGGKIEGSRLKFVDHHLRQQRALQQIGMMQPNAWRPQRGLPERAVSVLRAWLFEHFLHPYPKDSDKIMLAKQTGLTRSQVSNWFINARVRLWKPMVEEMYLEEVKNQEQNSTNTSGDNKNKETNISAPNEEKHPIITSSLLQDGITTTQAEISTSTISTSPTAGASLHHAHNFSFLGSFNMDNTTTTVDHIENNAKKQRNDMHKFSPSSILSSVDMEAKARESSNKGFTNPLMAAYAMGDFGRFDPHDQQMTANFHGNNGVSLTLGLPPSENLAMPVSQQNYLSNDLGSRSEMGSHYNRMGYENIDFQSGNKRFPTQLLPDFVTGNLGT |  |  |  | more than half | no detectable repression of promoter activity | Neither StBEL-05 nor POTH1 showed any effect | retarded the mobility of all three promoter sequences and the first intron | showed selective interaction
